Like-named read-outs stand apart in the source and are kept apart here. Square brackets hold non-standard residues; d marks the D form. Ends that are not written are not given here. hArg = N=C(N)NCCCC[C@H](N)C(=O)O; Aib = CC(C)(N)C(=O)O
T1: wild-type human PTH/PTHrP receptor (hP1R-WT) (human, UniProt Q03431 27-593)
T1 construct: whole, on cells; HKRK-B28 cells express ~280,000 receptors per cell; also called PTH-1 receptor; PTH-1R
T1 sequence (looked up): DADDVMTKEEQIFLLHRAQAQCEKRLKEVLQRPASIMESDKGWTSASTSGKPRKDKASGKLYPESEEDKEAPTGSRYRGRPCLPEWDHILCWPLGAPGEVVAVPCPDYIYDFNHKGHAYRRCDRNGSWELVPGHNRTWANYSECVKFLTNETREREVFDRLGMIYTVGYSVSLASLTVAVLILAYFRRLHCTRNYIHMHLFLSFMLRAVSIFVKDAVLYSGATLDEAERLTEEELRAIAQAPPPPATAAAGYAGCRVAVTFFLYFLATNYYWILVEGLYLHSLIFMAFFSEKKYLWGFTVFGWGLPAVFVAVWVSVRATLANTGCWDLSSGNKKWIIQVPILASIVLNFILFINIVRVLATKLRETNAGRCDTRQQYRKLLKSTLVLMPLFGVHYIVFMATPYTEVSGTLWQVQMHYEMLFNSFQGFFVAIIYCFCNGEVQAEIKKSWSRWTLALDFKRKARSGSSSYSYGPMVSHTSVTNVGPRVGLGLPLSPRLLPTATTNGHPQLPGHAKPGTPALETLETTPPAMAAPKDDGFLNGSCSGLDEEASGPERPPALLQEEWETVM

T2: truncated human P1R deleted for residues (24-181) (hP1R-delNt) (human, UniProt Q03431 182-593)
T2 construct: whole, on cells; also called delNT receptor
T2 sequence (looked up): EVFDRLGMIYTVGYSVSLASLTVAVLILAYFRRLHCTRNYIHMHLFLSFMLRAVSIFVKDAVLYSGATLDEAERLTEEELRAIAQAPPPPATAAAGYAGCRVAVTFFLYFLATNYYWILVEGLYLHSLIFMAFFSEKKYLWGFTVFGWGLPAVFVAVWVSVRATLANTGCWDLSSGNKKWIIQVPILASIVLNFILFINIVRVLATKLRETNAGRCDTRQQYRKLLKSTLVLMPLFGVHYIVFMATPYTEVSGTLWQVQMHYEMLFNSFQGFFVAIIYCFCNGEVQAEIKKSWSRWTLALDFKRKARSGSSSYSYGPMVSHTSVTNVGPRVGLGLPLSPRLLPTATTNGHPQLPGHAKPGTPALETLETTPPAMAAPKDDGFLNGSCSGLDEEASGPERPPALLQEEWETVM


Experiments:
[1] = biological target: wild-type human PTH/PTHrP receptor (hP1R-WT) (human) (UniProt Q03431); assay: cell-based or functional assay
[2] = biological target: T1, wild-type human PTH/PTHrP receptor …; assay: competition binding, 125I-[M]PTH(1-21) tracer, HKRK-B28 cells, 4 h at 4 C
Description: (§1) Competition Binding. Binding reactions were performed with HKRK-B28 cells or in COS-7 cells in 24-well plates. The cells were rinsed with 0.5 mL of binding buffer, and then treated successively with 100 μL binding buffer, 100 μL of binding buffer containing various amounts of unlabeled competitor ligand, and 100 μL of binding buffer containing ca. 100,000 cpm of ¹²⁵I-[M]PTH(1-21) or ¹²⁵I-[Aib^{1,3},M]PTH(1-21)} (ca. 26 fmol; final volume=300 μL). Incubations were 4 to 6 h at 4° C., at which time near equilibrium conditions were attained. Cells were then placed on ice, the binding medium was removed, and the monolayer was rinsed three times with 0.5 mL of cold binding buffer. The cells were subsequently lysed with 0.5 mL […] NaOH and counted for radioactivity. For each tracer and in each experiment, the non-specific binding was determined as the radioactivity that bound in the presence of the same unlabeled peptide at a concentration of 1 μM, and was ˜1% of total radioactivity added for each tracer. The maximum specific binding (B₀) was the total radioactivity bound in the absence of competing ligand, corrected for nonspecific binding, and for each tracer, ranged from 8% to 20% of the total radioactivity added. Nonlinear regression was used to calculate binding IC₅₀ values (see below). Scatchard transformations of homologous competition binding data derived from studies with 26 fmol of ¹²⁵I-[Aib^{1,3},M]PTH(1-21) were employed for estimations of apparent equilibrium dissociation constant (kDapps) and total number of ligand binding sites (Bₘₐₓ), assuming a single class of binding sites and equal affinities of the iodinated and non iodinated ligand.
Peptides PTH(1-34) ([Nle^{8,21}, Tyr³⁴]PTH(1-34)amide), [M]PTH(1-14) (M = Ala^{3,12}, Gln¹⁰, Har¹¹, Trp¹⁴), and [M]PTH(1-14 analogs, or C-terminally truncated derivatives thereof, containing α-aminoisobutyric acid (Aib) substitutions at the indicated positions were functionally evaluated in HKRK-B28 cells. “M” in [Aib^{1,3}, M]PTH(1-21) = Nle⁸, Gln¹⁰, Har¹¹, Ala¹², Trp¹⁴, Arg¹⁹ and Tyr²¹. The basal cAMP values (not subtracted) were 4.0 ± 0.1 pmole/well (n = 10). Peptides were based on the rat PTH sequence and were carboxy-amidated. Competition binding analyses were performed with ¹²⁵I-[M]PTH(1-21 )amide (Ala^{1,3}) as tracer for 4 h at 4° C. Data are means (±S.E.M.) Of the number of experiments indiated (n).

[3] = biological target: T1, wild-type human PTH/PTHrP receptor …; assay: competition binding, 125I-[M]PTH(1-21) tracer, HKRK-B28 cells
Description: as §1, with “Cells” for “Competition Binding. Binding reactions were performed with HKRK-B28 cells or in COS-7 cells in 24-well plates. The cells were rinsed with 0.5 mL of binding buffer, and then treated successively with 100 μL binding buffer, 100 μL of binding buffer containing various amounts of unlabeled competitor ligand, and 100 μL of binding buffer containing ca. 100,000 cpm of ¹²⁵I-[M]PTH(1-21) or ¹²⁵I-[Aib^{1,3},M]PTH(1-21)} (ca. 26 fmol; final volume=300 μL). Incubations were 4 to 6 h at 4° C., at which time near equilibrium conditions were attained. Cells”
Relative to the apparent binding affinity of [M]PTH(1-14), most of the Aib substitutions reduced affinity, in accordance with the corresponding effects on cAMP-signaling potency (Table 1).

[4] = biological target: T1, wild-type human PTH/PTHrP receptor …; assay: cell-based or functional assay
[5] = biological target: T1, wild-type human PTH/PTHrP receptor …; assay: cell-based or functional assay; remark: listed apart in the source
[6] = biological target: T2, truncated human P1R deleted for …; assay: competition binding, 125I-[Aib1,3,M]PTH(1-21) tracer, COS-7 cells expressing hP1R-delNt
Description: Stock solutions of EGTA/trypsin and antibiotics were from GIBCO; fetal bovine serum was from Hyclone Laboratories (Logan, Utah). […] All cells, in 24-well plates, were treated with fresh media and shifted to 33° C. for 12 to 24 h prior to assay.
as §1

[7] = biological target: T1, wild-type human PTH/PTHrP receptor …; assay: competition binding, 125I-[Aib1,3,M]PTH(1-21) tracer, COS-7 cells expressing hP1R-WT
Description: as §1

[8] = biological target: T1, wild-type human PTH/PTHrP receptor …; assay: cell-based or functional assay; remark: listed apart in the source
[9] = biological target: T2, truncated human P1R deleted for …; assay: cell-based or functional assay

Molecule	IC50 [2] [nM]	cAMP EC50 [5] [nM]	cAMP EMax(obs.) [5] [pmole/well]	fold reduction in affinity relative to [M]PTH(1-14) [3] [fold]	also measured
[Aib^11,M]PTH(1-14) (peptide)					cAMP EC50 [1]: 67000 nM; cAMP EMax(obs.) [1]: 96 pmole/well
AV[Aib]EIQLMHQ[hArg]AKW-NH2 (N-terminus assumed; SMILES CC[C@H](C)[C@H](NC(=O)[C@H](CCC(=O)O)NC(=O)C(C)(C)NC(=O)[C@@H](NC(=O)[C@H](C)N)C(C)C)C(=O)N[C@@H](CCC(N)=O)C(=O)N[C@@H](CC(C)C)C(=O)N[C@@H](CCSC)C(=O)N[C@@H](Cc1c[nH]cn1)C(=O)N[C@@H](CCC(N)=O)C(=O)N[C@@H](CCCCNC(=N)N)C(=O)N[C@@H](C)C(=O)N[C@@H](CCCCN)C(=O)N[C@@H](Cc1c[nH]c2ccccc12)C(N)=O, also called 624 Aib-3) [[Aib^3,M]PTH(1-14)]	1700	13	269		fold improvement in affinity relative to [M]PTH(1-14) [3]: 8 fold; cAMP EC50 in SaOS-2 cells [4]: 42 nM; cAMP EMAX(obs.) in SaOS-2 cells [4]: 330 pmole/well
AVAEIQLMHQ[hArg][Aib]KW-NH2 (N-terminus assumed; SMILES CC[C@H](C)[C@H](NC(=O)[C@H](CCC(=O)O)NC(=O)[C@H](C)NC(=O)[C@@H](NC(=O)[C@H](C)N)C(C)C)C(=O)N[C@@H](CCC(N)=O)C(=O)N[C@@H](CC(C)C)C(=O)N[C@@H](CCSC)C(=O)N[C@@H](Cc1c[nH]cn1)C(=O)N[C@@H](CCC(N)=O)C(=O)N[C@@H](CCCCNC(=N)N)C(=O)NC(C)(C)C(=O)N[C@@H](CCCCN)C(=O)N[C@@H](Cc1c[nH]c2ccccc12)C(N)=O, Aib scan of [M]PTH(1-14); Aib replaces the Ala^12 of [M]; also called 633 Aib-12) [[Aib^12,M]PTH(1-14)]	15000	440	263	< 10	
AVAEIQLMHQ[hArg]A[Aib]W-NH2 (N-terminus assumed; SMILES CC[C@H](C)[C@H](NC(=O)[C@H](CCC(=O)O)NC(=O)[C@H](C)NC(=O)[C@@H](NC(=O)[C@H](C)N)C(C)C)C(=O)N[C@@H](CCC(N)=O)C(=O)N[C@@H](CC(C)C)C(=O)N[C@@H](CCSC)C(=O)N[C@@H](Cc1c[nH]cn1)C(=O)N[C@@H](CCC(N)=O)C(=O)N[C@@H](CCCCNC(=N)N)C(=O)N[C@@H](C)C(=O)NC(C)(C)C(=O)N[C@@H](Cc1c[nH]c2ccccc12)C(N)=O, Aib scan of [M]PTH(1-14); also called 634 Aib-13) [[Aib^13,M]PTH(1-14)]	44000	480	259	< 10	
AVAEIQLMHQ[hArg]AK[Aib]-NH2 (N-terminus assumed; SMILES CC[C@H](C)[C@H](NC(=O)[C@H](CCC(=O)O)NC(=O)[C@H](C)NC(=O)[C@@H](NC(=O)[C@H](C)N)C(C)C)C(=O)N[C@@H](CCC(N)=O)C(=O)N[C@@H](CC(C)C)C(=O)N[C@@H](CCSC)C(=O)N[C@@H](Cc1c[nH]cn1)C(=O)N[C@@H](CCC(N)=O)C(=O)N[C@@H](CCCCNC(=N)N)C(=O)N[C@@H](C)C(=O)N[C@@H](CCCCN)C(=O)NC(C)(C)C(N)=O, Aib scan of [M]PTH(1-14); Aib replaces the Trp^14 of [M]; also called 635 Aib-14) [[Aib^14,M]PTH(1-14)]	79000	350	273	< 10	
[Aib]V[Aib]EIQLMHQ[hArg]-NH2 (N-terminus assumed; SMILES CC[C@H](C)[C@H](NC(=O)[C@H](CCC(=O)O)NC(=O)C(C)(C)NC(=O)[C@@H](NC(=O)C(C)(C)N)C(C)C)C(=O)N[C@@H](CCC(N)=O)C(=O)N[C@@H](CC(C)C)C(=O)N[C@@H](CCSC)C(=O)N[C@@H](Cc1c[nH]cn1)C(=O)N[C@@H](CCC(N)=O)C(=O)N[C@@H](CCCCNC(=N)N)C(N)=O, also called 682 [Aib^1,3, M]PTH (1-11); [Aib^1,3,Gln^10,Har^11]PTH(1-11)) [[Aib^1,3,M]PTH(1-11)]	970	4	243		IC50 [6]: 13000 nM; IC50 [7]: 16000 nM; cAMP EC50 [8]: 2.1 nM; cAMP EMax(obs.) [8]: 190 pmole/well; cAMP EC50 [9]: 2 nM; cAMP EMax(obs.) [9]: 220 pmole/well
[Aib]VAEIQLMHQ[hArg]AKW-NH2 (N-terminus assumed; SMILES CC[C@H](C)[C@H](NC(=O)[C@H](CCC(=O)O)NC(=O)[C@H](C)NC(=O)[C@@H](NC(=O)C(C)(C)N)C(C)C)C(=O)N[C@@H](CCC(N)=O)C(=O)N[C@@H](CC(C)C)C(=O)N[C@@H](CCSC)C(=O)N[C@@H](Cc1c[nH]cn1)C(=O)N[C@@H](CCC(N)=O)C(=O)N[C@@H](CCCCNC(=N)N)C(=O)N[C@@H](C)C(=O)N[C@@H](CCCCN)C(=O)N[C@@H](Cc1c[nH]c2ccccc12)C(N)=O, also called 622 Aib-1) [[Aib^1,M]PTH(1-14)]	980	10	273		fold improvement in affinity relative to [M]PTH(1-14) [3]: 13 fold; cAMP EC50 in SaOS-2 cells [4]: 22 nM; cAMP EMAX(obs.) in SaOS-2 cells [4]: 340 pmole/well

Reference: patent US20050026839A1 (GENERAL HOSPITAL, published 2005)
